Measurements taken from patent US12410253B2, “Compositions comprising anti-NRP2 antibodies” (aTyr Pharma, Inc., priority 2019, dated 2025).

B1: aNRP2-10v10: humanized, affinity matured anti-NRP2 antibody, target domain b1, VEGF-C blocking; VH SEQ ID NO: 49, VL SEQ ID NO: 50 (antibody, V domains shown)
VH: EVQLVQSGAEVKKPGATVKISCKVSGFNIKDYYVHWVQQAPGKGLEWMGRIDVEDDETKYAPKFQGRVTITADTSTDTAYMELSSLRSEDTAVYYCATPIYGAREAWFAYWGQGTLVTVSS
VL: DIQMTQSPSSLSASVGDRVTITCTASSSVSSSYLHWYQQKPGKAPKLLIYRTSNLASGVPSRFSGSGSGTDFTLTISSLQPEDFATYYCHQYYRSPPTFGGGTKVEIK
modifications: Variable heavy chain region; Light chain variable region
B2: aNRP2-11v7: humanized, affinity matured anti-NRP2 antibody, target domain b2; VH SEQ ID NO: 51, VL SEQ ID NO: 52 (antibody, V domains shown)
VH: QVQLVQSGAEVKKPGASVKVSCKASGYTFTSFGISWVRQAPGQGLEWIGEIYPRSGNTYYNENFKGRATMTADKSTSTAYMELRSLRSDDTAVYYCARSSGYYGSTPFPYWGQGTLVTVSS
VL: DIQMTQSPSSLSASVGDRVTITCRASQDISNYLNWYQQKPGKAVKLLIYYTSRLHSGVPSRFSGSGSGTDYTFTISSLQPEDIATYYCQQGNTLPWTFGGGTKVEIK
modifications: Variable heavy chain region; Light chain variable region

Assays:
Human NRP2 (aa23-855) = target: T1, Human NRP2 (aa23-855) (Homo sapiens, UniProt O60462); test: SPR binding affinity of anti-NRP2 antibodies to human NRP2 antigen; settings: KD = kd/ka, Langmuir (1:1) model
T1 construct: Human NRP2 (aa23-855)
T1 sequence (O60462 23-855 isoform O60462-3): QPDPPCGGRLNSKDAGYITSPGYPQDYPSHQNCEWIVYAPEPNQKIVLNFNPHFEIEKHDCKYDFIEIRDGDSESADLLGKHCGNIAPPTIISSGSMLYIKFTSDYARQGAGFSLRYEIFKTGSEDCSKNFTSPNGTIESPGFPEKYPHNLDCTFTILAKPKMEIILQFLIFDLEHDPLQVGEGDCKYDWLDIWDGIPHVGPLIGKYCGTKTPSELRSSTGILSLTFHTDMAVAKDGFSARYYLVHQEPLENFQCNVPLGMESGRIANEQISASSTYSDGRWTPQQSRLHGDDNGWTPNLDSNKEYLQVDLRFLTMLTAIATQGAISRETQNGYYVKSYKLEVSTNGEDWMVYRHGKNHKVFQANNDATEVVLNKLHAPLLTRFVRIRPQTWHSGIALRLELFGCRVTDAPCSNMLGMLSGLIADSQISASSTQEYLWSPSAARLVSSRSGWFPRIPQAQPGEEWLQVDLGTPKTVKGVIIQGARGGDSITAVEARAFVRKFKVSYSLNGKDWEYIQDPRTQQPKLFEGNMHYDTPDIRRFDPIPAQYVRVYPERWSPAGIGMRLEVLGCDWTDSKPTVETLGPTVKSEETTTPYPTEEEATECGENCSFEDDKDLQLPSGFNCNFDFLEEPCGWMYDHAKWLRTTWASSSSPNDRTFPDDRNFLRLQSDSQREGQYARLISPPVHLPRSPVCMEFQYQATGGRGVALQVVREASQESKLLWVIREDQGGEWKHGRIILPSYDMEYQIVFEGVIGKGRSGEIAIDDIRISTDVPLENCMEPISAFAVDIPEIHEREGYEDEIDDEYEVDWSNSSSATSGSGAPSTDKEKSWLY
Protocol: Anti-NRP2 antibody binding and affinity measurements. […] SPR experiments were conducted on a Bio-Rad ProteOn XPR36 Protein Interaction Array instrument. Biotinylated anti-human antibody (ThermoFisher Cat #7103302100) was immobilized on ProteOn NLC sensor chips. Anti-NRP2 antibodies were subsequently flowed over and captured by the anti-human antibody. Human NRP2 antigen protein was flowed over the captured antibody at varying concentrations (150, 50, 16.67, 5.56, 1.85 nM). The sensor chip surface was regenerated between each analyte run to remove anti-NRP2 antibodies and NRP2 protein. Data was double referenced against a surface with no anti-NRP2 antibody captured (immobilized anti-human antibody only) and a buffer only blank. Affinity constants were derived by globally fitting sensograms to a Langmuir (1:1) interaction model in the ProteOn manager software. For each anti-NRP2 antibody, data from the multiple NRP2 concentrations was fit as a single data set with dissociation rate constant (kd), association rate constant (ka) and Rmax values as global parameters. The reported binding affinity is the equilibrium dissociation constant (KD) calculated from kd/ka. • Running buffer: 50 mM HEPES, 300 mM NaCl, 5 mM CaCl2), 0.005% Tween-20, pH 7.4 • Immobilized antibody: CaptureSelect Human Fab-kappa Kinetics Biotin Conjugate, ThermoFisher Cat #7103302100 • Antigen: Human NRP2 (aa23-855) with C-terminal Avi-, Myc- and His-tags • Regeneration buffer: 10 mM glycine pH 2.0

NRP2/PLXNA1 = test: Split-luciferase receptor dimerization assay, NRP2/PLXNA1 with SEMA3F; type: cell-based, human; settings: antibody 100 nM; ligand induced dimerization
Protocol: To further extend the assessment of the biological activity of the anti-NRP2 antibodies, their activity was assessed in a receptor dimerization assay. In brief, vectors encoding a split luciferase pBiT1.1 and pBiT2.1 were obtained from Promega corporation (Madison, Wisconsin). The complete extracellular domain and transmembrane helices of NRP2a (version 2), NRP2b (version 5) (See table N1), FLT4 (VEGFR3), KDR (VEGFR2), and plexin A1 (PLXNA1) were cloned into the vectors and screened for optimal orientation, receptor density, and ligand induced dimerization, following established methods. Expi293 cells (Fisher) were transfected at 1 million cells/mL ˜20 hours prior to the assay with NRP2 and a co-receptor at equal mass amounts. Cells were counted, and 100,000 live cells were plated in a well of a white luminometer plate in Live Cell Imaging Solution (Fisher). Nano-Glo assay substrate (Promega) was added, and the plate was read on a Glomax 96 luminometer at room temperature to establish baseline luminescence. Antibodies were added to the well at 100 nM and the plate was again read to establish a new baseline and monitor the effects of the antibodies on spontaneous receptor dimerization. Depending on the receptor pair, typically 200 nM SEMA3F-p95 (aTyr Pharma), 2 nM VEGF-C(R&D Systems, Minnesota), or 2 nM VEGF165 (R&D Systems, Minnesota) were then added and the plate was again read to measure dimerization of receptors. Normalized responses for each individual well were calculated to the time point prior to addition of ligand, then normalized to no-antibody/no-ligand (baseline signal). Replicates were then processed to give average response and standard deviation. Results are summarized in Table E3 below, and shown graphically in FIGS. 3-10.

Molecule | Kd (Human NRP2 (aa23-855)) [nM] | effect on NRP2-plexin heterodimerization (in words) (NRP2/PLXNA1)
B1 | 0.029 | without significantly inhibiting
B2 | 0.95 | increased the ligand induced dimerization signal
